Data reported in publication PMC8699916, “Synthesis of Human Bone Morphogenetic Protein-2 (hBMP-2) in E. coli Periplasmic Space: Its Characterization and Preclinical Testing” (Cells, 2021).

Experiments:
[1] = target: the molecule itself; assay: non-reducing SDS-PAGE; 15% polyacrylamide gel, non-reducing conditions, Coomassie Brilliant Blue G-250 staining; bought reference preparation
[2] = target: the molecule itself; assay: non-reducing SDS-PAGE with Western blot; 15% gel, non-reducing conditions, semi-dry transfer to nitrocellulose, anti-hBMP-2 rabbit IgG 1:2000; periplasmic fluid of W3110 grown at 30 °C and 42 °C

B1: met-hBMP-2 reference preparation from GenScript (natural protein, human)
chain: MQAKHKQRKRLKSSCKRHPLYVDFSDVGWNDWIVAPPGYHAFYCHGECPFPLADHLNSTNHAIVQTLVNSVNSKIPKACCVPTELSAISMLYLDENEKVVLKNYQDMVVEGCGCR
notes: initial methionine typical of the cytoplasmic product, told in words (met-hBMP-2); human bone morphogenetic protein-2; vendor declares dimeric form (~26 kDa); Commercial product; also called hBMP-2 GenScript; GenScript hBMP-2; source: bought: GenScript (cytoplasmic, E. coli-derived)
stoichiometry N [1]: 2

B2: periplasmic human bone morphogenetic protein-2 (hBMP-2 Biosintesis) (natural protein, UniProt P12643 283-396, looked up)
chain: QAKHKQRKRLKSSCKRHPLYVDFSDVGWNDWIVAPPGYHAFYCHGECPFPLADHLNSTNHAIVQTLVNSVNSKIPKACCVPTELSAISMLYLDENEKVVLKNYQDMVVEGCGCR
notes: authentic form without the initial methionine; monomer ~13 kDa, dimer ~26 kDa; also called authentic hBMP-2; our hBMP-2; source: E. coli W3110 with pλPL-DsbA-BMP-2, periplasmic fluid extracted by osmotic shock
stoichiometry N [2]: 2
